{"source": "patent US20190031781A1", "key": {"[1]": {"target": "carboxymethyl lysine conjugated to keyhole limpet hemocyanin (CML-KLH)", "test": "direct binding ELISA, CML-KLH coat 1 ug/mL, antibody at 5.56 ug/mL"}, "[2]": {"target": "carboxymethyl lysine conjugated to keyhole limpet hemocyanin (CML-KLH)", "test": "direct binding ELISA, CML-KLH coat 1 ug/mL, antibody at 16.67 ug/mL"}, "[3]": {"target": "carboxymethyl lysine conjugated to keyhole limpet hemocyanin (CML-KLH)", "test": "direct binding ELISA, CML-KLH coat 1 ug/mL, antibody at 1.85 ug/mL"}, "[4]": {"target": "carboxymethyl lysine conjugated to keyhole limpet hemocyanin (CML-KLH)", "test": "direct binding ELISA, CML-KLH coat 1 ug/mL, antibody at 0.07 ug/mL"}, "[5]": {"target": "carboxymethyl lysine conjugated to keyhole limpet hemocyanin (CML-KLH)", "test": "direct binding ELISA, CML-KLH coat 1 ug/mL, antibody at 50 ug/mL"}, "[6]": {"target": "carboxymethyl lysine conjugated to keyhole limpet hemocyanin (CML-KLH)", "test": "direct binding ELISA, CML-KLH coat 1 ug/mL, antibody at 0.62 ug/mL"}, "[7]": {"target": "carboxymethyl lysine conjugated to keyhole limpet hemocyanin (CML-KLH)", "test": "direct binding ELISA, CML-KLH coat 1 ug/mL, antibody at 0.21 ug/mL"}}, "data": [{"substance": "carboxymethyl lysine MAb (Clone 318003), R&D Systems, catalog no. MAB3247 (antibody)", "values": [{"measurement": "OD450", "setting": "[1]", "result": 0.165}, {"measurement": "OD450", "setting": "[2]", "result": 0.312}, {"measurement": "OD450", "setting": "[3]", "result": 0.092}, {"measurement": "OD450", "setting": "[4]", "result": 0.086}, {"measurement": "OD450", "setting": "[5]", "result": 0.462}, {"measurement": "OD450", "setting": "[6]", "result": 0.083}, {"measurement": "OD450", "setting": "[7]", "result": 0.075}]}]}
